The labels stand for the following.
B1: hz16E5-1.2 (antibody, human IgG4 S228P, kappa)
heavy: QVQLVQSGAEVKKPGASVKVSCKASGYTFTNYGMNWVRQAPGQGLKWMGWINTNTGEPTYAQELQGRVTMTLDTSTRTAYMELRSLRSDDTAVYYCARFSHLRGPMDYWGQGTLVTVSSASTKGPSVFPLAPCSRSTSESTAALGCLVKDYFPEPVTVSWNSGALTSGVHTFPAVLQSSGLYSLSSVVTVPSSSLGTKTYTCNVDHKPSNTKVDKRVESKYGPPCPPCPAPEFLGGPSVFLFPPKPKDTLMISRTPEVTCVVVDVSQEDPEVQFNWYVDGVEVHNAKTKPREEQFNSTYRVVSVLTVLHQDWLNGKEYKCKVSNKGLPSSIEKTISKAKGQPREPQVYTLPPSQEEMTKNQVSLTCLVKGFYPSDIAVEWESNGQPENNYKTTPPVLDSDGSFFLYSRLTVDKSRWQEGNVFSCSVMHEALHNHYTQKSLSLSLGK
light: DIQMTQSPSSLSASVGDRVTITCRSSQSLVHSNGYTYLHWYQQKPGKAPKLLIYKVSNRFSGVPSRFSGSGSGTDFTLTISSLQPEDFATYYCSQSTHVPPTFGQGTKLEIKRTVAAPSVFIFPPSDEQLKSGTASVVCLLNNFYPREAKVQWKVDNALQSGNSQESVTEQDSKDSTYSLSSTLTLSKADYEKHKVYACEVTHQGLSSPVTKSFNRGEC
notes: Humanized 16E5, full-length heavy and light chains, made in CHO cells
B2: hz16E5-3.1 (antibody, human IgG4 S228P, kappa)
heavy: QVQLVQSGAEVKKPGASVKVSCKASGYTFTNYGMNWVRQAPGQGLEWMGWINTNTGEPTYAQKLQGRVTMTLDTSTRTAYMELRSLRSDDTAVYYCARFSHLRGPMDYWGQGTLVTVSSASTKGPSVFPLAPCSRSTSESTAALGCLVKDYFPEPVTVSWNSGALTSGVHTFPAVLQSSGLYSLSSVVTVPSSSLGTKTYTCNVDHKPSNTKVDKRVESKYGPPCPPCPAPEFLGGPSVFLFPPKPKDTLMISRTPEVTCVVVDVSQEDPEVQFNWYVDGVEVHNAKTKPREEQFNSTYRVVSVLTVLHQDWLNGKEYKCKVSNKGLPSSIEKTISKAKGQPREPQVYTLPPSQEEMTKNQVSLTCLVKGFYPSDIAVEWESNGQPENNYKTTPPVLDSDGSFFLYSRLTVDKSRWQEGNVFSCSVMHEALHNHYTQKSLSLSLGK
light: B1 light with I2A
notes: as for B1
B3: hz16E5-3.3 (antibody, human IgG4 S228P, kappa)
heavy: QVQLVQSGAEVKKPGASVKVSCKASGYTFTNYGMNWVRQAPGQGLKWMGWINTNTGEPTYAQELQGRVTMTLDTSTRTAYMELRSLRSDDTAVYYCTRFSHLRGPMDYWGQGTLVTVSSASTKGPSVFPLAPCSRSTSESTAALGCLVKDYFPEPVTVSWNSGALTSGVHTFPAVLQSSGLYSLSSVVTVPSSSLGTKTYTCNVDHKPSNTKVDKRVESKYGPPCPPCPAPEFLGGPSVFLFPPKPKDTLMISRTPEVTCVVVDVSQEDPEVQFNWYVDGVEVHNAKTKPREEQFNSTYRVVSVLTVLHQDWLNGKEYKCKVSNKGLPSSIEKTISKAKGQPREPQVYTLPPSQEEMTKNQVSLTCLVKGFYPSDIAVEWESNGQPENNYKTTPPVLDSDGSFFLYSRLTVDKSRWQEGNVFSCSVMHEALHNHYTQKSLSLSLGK
light: B1 light with I2A
notes: as for B1
B4: hz16E5-3.2 (antibody, human IgG4 S228P, kappa)
heavy: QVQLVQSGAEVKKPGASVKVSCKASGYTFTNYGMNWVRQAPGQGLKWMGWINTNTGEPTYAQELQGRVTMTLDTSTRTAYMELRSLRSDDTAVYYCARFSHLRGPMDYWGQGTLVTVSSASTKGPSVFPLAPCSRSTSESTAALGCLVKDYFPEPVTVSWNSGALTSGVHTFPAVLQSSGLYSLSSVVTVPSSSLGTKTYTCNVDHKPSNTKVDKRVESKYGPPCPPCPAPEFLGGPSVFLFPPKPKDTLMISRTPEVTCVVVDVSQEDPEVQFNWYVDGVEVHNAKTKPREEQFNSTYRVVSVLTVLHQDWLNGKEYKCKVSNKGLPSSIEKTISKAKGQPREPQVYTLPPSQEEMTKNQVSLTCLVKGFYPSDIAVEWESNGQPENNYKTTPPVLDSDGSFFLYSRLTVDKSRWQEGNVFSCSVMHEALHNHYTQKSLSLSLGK
light: B1 light with I2A
notes: as for B1
B5: hz16E5-1.3 (antibody, human IgG4 S228P, kappa)
heavy: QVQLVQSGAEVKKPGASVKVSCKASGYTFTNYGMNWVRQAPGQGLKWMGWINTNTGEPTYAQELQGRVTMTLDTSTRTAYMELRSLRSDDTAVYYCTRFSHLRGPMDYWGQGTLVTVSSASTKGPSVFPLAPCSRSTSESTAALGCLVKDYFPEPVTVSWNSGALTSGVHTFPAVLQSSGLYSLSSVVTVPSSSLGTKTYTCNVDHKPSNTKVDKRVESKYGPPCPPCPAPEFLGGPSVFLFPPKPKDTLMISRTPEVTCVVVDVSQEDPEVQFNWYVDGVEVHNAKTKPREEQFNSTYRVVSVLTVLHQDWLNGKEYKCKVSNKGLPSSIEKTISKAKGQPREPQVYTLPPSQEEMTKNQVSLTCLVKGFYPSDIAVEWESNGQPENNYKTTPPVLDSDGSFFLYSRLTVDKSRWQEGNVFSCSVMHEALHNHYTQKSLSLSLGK
light: B1 light
notes: as for B1
B6: hz16E5-1.1 (antibody, human IgG4 S228P, kappa)
heavy: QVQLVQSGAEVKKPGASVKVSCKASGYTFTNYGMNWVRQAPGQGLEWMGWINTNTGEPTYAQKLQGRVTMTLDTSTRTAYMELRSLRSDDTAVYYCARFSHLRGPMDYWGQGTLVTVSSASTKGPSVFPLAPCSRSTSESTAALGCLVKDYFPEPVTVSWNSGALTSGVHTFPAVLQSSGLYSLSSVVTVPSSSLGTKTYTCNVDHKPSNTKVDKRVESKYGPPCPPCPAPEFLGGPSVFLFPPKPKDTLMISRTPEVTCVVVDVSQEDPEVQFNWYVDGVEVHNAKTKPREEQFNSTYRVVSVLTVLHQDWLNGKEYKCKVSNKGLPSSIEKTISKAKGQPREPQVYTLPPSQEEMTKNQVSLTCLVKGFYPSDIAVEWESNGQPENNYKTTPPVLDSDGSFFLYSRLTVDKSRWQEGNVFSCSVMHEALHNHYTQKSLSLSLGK
light: B1 light
notes: as for B1
B7: Xi2B2 (antibody, human IgG4 S228P, kappa, V domains shown)
VH: EVMLVESGGGLVQPGGSLKLSCAASGFTFSNYYMSWVRQTPEKRLEWVAYISSGGGSTYYPDSVKGRFTISRDNAKNTLYLQMSSLKSEDTAMYYCAWFAYWGQGTLVTVSA
VL: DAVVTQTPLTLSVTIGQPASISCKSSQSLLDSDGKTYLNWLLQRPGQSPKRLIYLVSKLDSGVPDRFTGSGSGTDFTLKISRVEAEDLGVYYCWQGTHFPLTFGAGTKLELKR
notes: Chimeric: mouse VH on human IgG4 (S228P, EU) constant region, mouse VL on human kappa constant region; made in CHO cells; also called chimeric version of 2B2
B8: Xi14A9 (antibody, human IgG4 S228P, kappa, V domains shown)
VH: EVQLQQSGAEVARPGASVKLSCTVSGFNIEDDYIEWVKQRPEQGLEWIGRIDPANDKTKYAPKFQDKATITGDTSSNTAYLQLSSLTSEDTAVYYCTRPGLRRYYSMDYWGQGTSVTVSS
VL: NIVLTQSPKSMSMSVGERVTLSCKASENVVSYVSWYQQKPEQSPKLLIYGASNRYTGVPDRFIGSGSSTDFTLIISSFQPEDLADYHCGQSYSYPLTFGAGTKLELKR
notes: Chimeric: mouse VH on human IgG4 (S228P, EU) constant region, mouse VL on human kappa constant region; made in CHO cells; also called chimeric version of 14A9
B9: Xi3F10 (antibody, human IgG4 S228P, kappa, V domains shown)
VH: EVQLQQSVAELMKPGASVKIYCKATGYTFSRYWIEWVKQRPGHGLEWIGEFIPGSDTTNFNEKFKGKATFTAEISSNTAYMQLSSLTSEDSAVYFCARGGLRRMDYWGQGTSVTVSS
VL: DIVMTQTPAIMSASPGEKVTMTCRASSSVSSTYLHWYQQKSGASPKLWIYTTSTLASGVPARFSGSGSGTSYSLTISSVEAEDAATYYCQQFSDSTWTFGGGTKLEIKR
notes: Chimeric: mouse VH on human IgG4 (S228P, EU) constant region, mouse VL on human kappa constant region; made in CHO cells; also called chimeric version of 3F10
B10: Xi2H8 (antibody, human IgG4 S228P, kappa, V domains shown)
VH: QVQLKESGPGLVAPSQSLSITCTVSGFSLTNYGVHWVRQPPGKGLEWLGIIWAGGSTNYNSALMSRLSISKDNSKSQVFLKMNSLQTDDTAMYYCARDDYASMDYWGQGTSVTVSS
VL: DAFMTQTPLSLPVSLGDQASISCRSSQSLVHSNGNTYLHWYLQKPGQSPKLLIYKVSNRFSGVPDRFSGSGSGTDFTLKISRVEAEDLGVYFCSQSTHVPYTLGGGTKLEIKR
notes: Chimeric: mouse VH on human IgG4 (S228P, EU) constant region, mouse VL on human kappa constant region; made in CHO cells; also called chimeric version of 2H8
B11: Xi16E5 (antibody, human IgG4 S228P, kappa, V domains shown)
VH: EVQLQQSGPELKKPGETVKISCKASGYTFTNYGMNWVKQVPGKGLKWMGWINTNTGEPTYAEEFKGRFAFSLETSARTAFLQINNLKNEDTATYFCTRFSHLRGPMDYWGQGASVTVSS
VL: B10 VL with F3V, N35Y, V83L, Y101P, L103F
notes: Chimeric: mouse VH on human IgG4 (S228P, EU) constant region, mouse VL on human kappa constant region; made in CHO cells; also called chimeric version of 16E5
B12: hz3F10-5.2 (antibody, human IgG4 S228P, kappa, V domains shown)
VH: QVQLVQSGAEVKKPGSSVKVSCKASGYTFSRYWIEWVRQAPGQGLEWMGEFIPGSDTTNYAQKFQGRVTITAEISTNTAYMELSSLRSEDTAVYYCARGGLRRMDYWGQGTLVTVSS
VL: DIQMTQSPSSLSASVGDRVTITCRASSSVSSTYLHWYQQKPGKAPKLWIYTTSTLASGVPSRFSGSGSGTSYTLTISSLQPEDFATYYCQQFSDSTWTFGQGTKLEIKR
notes: Humanized 3F10, full-length heavy and light chains, made in CHO cells
B13: hz3F10-2.1 (antibody, human IgG4 S228P, kappa, V domains shown)
VH: B12 VH with E73D, N77S
VL: B12 VL with W48L, S71D, Y72F, D94E
notes: as for B12
B14: hz3F10-1.2 (antibody, human IgG4 S228P, kappa, V domains shown)
VH: B12 VH
VL: B12 VL with W48L, S71D, Y72F
notes: as for B12
B15: hz3F10-3.2 (antibody, human IgG4 S228P, kappa, V domains shown)
VH: B12 VH
VL: B12 VL with W48L
notes: as for B12
B16: hz3F10-4.1 (antibody, human IgG4 S228P, kappa, V domains shown)
VH: B12 VH with E73D, N77S
VL: B12 VL with W48L, D94E
notes: as for B12
B17: hz3F10-4.2 (antibody, human IgG4 S228P, kappa, V domains shown)
VH: B12 VH
VL: B12 VL with W48L, D94E
notes: as for B12
B18: hz3F10-1.1 (antibody, human IgG4 S228P, kappa, V domains shown)
VH: B12 VH with E73D, N77S
VL: B12 VL with W48L, S71D, Y72F
notes: as for B12
B19: hz3F10-2.2 (antibody, human IgG4 S228P, kappa, V domains shown)
VH: B12 VH
VL: B12 VL with W48L, S71D, Y72F, D94E
notes: as for B12
B20: hz3F10-6.2 (antibody, human IgG4 S228P, kappa, V domains shown)
VH: B12 VH
VL: B12 VL with D94E
notes: as for B12
B21: hz3F10-5.1 (antibody, human IgG4 S228P, kappa, V domains shown)
VH: B12 VH with E73D, N77S
VL: B12 VL
notes: as for B12
B22: hz3F10-6.1 (antibody, human IgG4 S228P, kappa, V domains shown)
VH: B12 VH with E73D, N77S
VL: B12 VL with D94E
notes: as for B12
B23: hz14A9-2.3 (antibody, human IgG4 S228P, kappa, V domains shown)
VH: QVQLVQSGAEVKKPGASVKVSCKVSGFNIEDDYIEWVRQAPGQGLEWMGRIDPANDKTKYAQKFQGRVTMTGDTSTNTVYMELSSLRSEDTAVYYCARPGLRRYYSMDYWGQGTLVTVSS
VL: DIQMTQSPSSLSASVGDRVTITCKASENVVSYVSWYQQKPGKAPKLLIYGASNRYTGVPSRFIGSGSSTDFTLTISSLQPEDFATYYCGQSYSYPLTFGQGTKLEIKR
B24: hz14A9-2.4 (antibody, human IgG4 S228P, kappa, V domains shown)
VH: B23 VH with A97T
VL: B23 VL
B25: hz3F10-3.1 (antibody, human IgG4 S228P, kappa, V domains shown)
VH: B12 VH with E73D, N77S
VL: B12 VL with W48L
notes: as for B12

Substitutions are numbered along the chain they refer to. Names may count otherwise.

One assay concerns the target T1, cynomolgus/rhesus macaque CD47 protein, His Tag (ACRObiosystems, Cat. No. CD7-C52H1) (cynomolgus monkey, UniProt A0A2K5X523 19-139).
T1 construct: Bought protein; also called Cynomolgus monkey CD47 protein; not shown: His tag
The assay is described as follows: Biacore SPR, antibody captured on CM5 chip, CD47-His protein, 25 C. On the procedure: (§1) The equilibrium dissociation constants KD (in unit M) were obtained by measuring the binding kinetics of the human CD47 protein (human CD47 protein, His Tag; ACRObiosystems, Cat. No. CD7-H5227) and cynomolgus monkey CD47 protein (cynomolgus/rhesus macaque CD47 protein, His Tag; ACRObiosystems, Cat. No. CD7-C52H1) to anti-CD47 antibodies (chimeric or humanized) using Biacore. The Biacore analysis was performed at 25° C. and data were recorded at a rate of 1 Hz.
(§2) At the beginning of each cycle, the diluted test antibody (1.5 μg/mL) was injected onto the experimental flowcell and maintained for 1 min to be captured.
B1 had a Kd of 2.26 nM. This counts as single-digit nanomolar.
On the same count and under the same terms, with B2 the figure was 3.28 nM.
The same measure, in the same setting: with B3 the figure was 1.87 nM.
On the same count and under the same terms, under B4 stands 3.1 nM; under B5, 2.73 nM.
Molecule B6 showed a Kd of 4.77 nM.
Still for that read-out and setting: under B7 stands 1.2 nM.
Still for that read-out and setting: with B8 the figure was 1.58 nM; with B9, 1.04 nM.
For B10, the Kd was 1.25 nM.
B11 displayed a Kd of 2.92 nM.
B12: the Kd worked out at 1.4 nM. This Kd lies about 2.1-fold lower than the previous one.
On the same count and under the same terms, under B13 stands 1.17 nM; under B14, 1.33 nM.
Regarding B15, the affinity, expressed as Kd, was 1.47 nM.
Same read-out and setting: under B16 stands 1.62 nM; under B17, 1.86 nM.
B18 displayed a Kd of 1.31 nM.
Same read-out and setting: with B19 the figure was 1.14 nM; with B20, 1.15 nM; with B21, 1.3 nM.
For B22, binding was characterised by a dissociation constant (Kd) of 2.47 nM.
As for B23, binding was characterised by a dissociation constant (Kd) of 3.07 nM.
B24 yielded a Kd of 2 nM.

For the next assay, the target named is T2, human CD47 protein, His Tag (ACRObiosystems, Cat. No. CD7-H5227) (human, UniProt Q08722 19-139).
T2 construct: Bought protein; also called hCD47-His Tag protein; not shown: His tag
T2 sequence (Q08722 19-139 limits assumed): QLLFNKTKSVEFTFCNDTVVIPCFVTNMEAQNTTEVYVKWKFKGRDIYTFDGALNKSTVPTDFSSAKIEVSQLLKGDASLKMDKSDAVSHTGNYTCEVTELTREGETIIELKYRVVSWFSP
The assay is described as above. Here is the method:
as §1, §2
On to B1, for which the affinity, expressed as Kd, was 9.31 nM.
Still for that read-out and setting: with B2 the figure was 6.28 nM; with B3, 7.13 nM.
Still for that read-out and setting: under B4 stands 17.1 nM; under B5, 15.3 nM; under B6, 18.9 nM.
Still for that read-out and setting: with B7 the figure was 7.48 nM; with B8, 2.35 nM; with B9, 0.767 nM.
On to B10, for which the affinity, expressed as Kd, was 0.35 nM. This Kd lies about 2.2-fold lower than the previous one.
In the case of B11, binding was characterised by a dissociation constant (Kd) of 9.06 nM. This Kd lies about 26-fold higher than the previous one.
On to B25, for which the Kd worked out at 1.53 nM.
On the same count and under the same terms, with B12 the figure was 0.896 nM.
The same measure, in the same setting: with B13 the figure was 0.836 nM; with B14, 0.904 nM.
B15 registered a Kd of 1.15 nM. This Kd and that of the molecule before are within 1.5-fold of each other.
The molecule B16 had a Kd of 1.42 nM. This Kd and that of the molecule before are within 1.5-fold of each other.
With B17, binding was characterised by a dissociation constant (Kd) of 1.34 nM.
Take B18: binding was characterised by a dissociation constant (Kd) of 0.946 nM.
With B19, the Kd amounted to 0.779 nM. This Kd and that of the molecule before are within 1.5-fold of each other.
In turn, B20 displayed a Kd of 0.765 nM.
Consider B21, for which binding was put at a Kd of 0.96 nM.
B22 had a dissociation constant (Kd) of 0.592 nM.
On the same count and under the same terms, under B23 stands 0.204 nM.
The molecule B24 came in with a Kd of 8.55 nM.

The record behind these values is patent US20240269278A1 (NANJING SHUNXIN PHARMACEUTICALS CO LTD OF CHIATAI TIANQING …, published 2024).
